Numbered stars: 1 amine (or outer) side, 2 acyl side, 3 side chain; on linkers, the order of the positions; unused ones are H or OH. Square brackets hold non-standard residues; d marks the D form. Side chains are listed from the residue outwards. Ends that are not written are not given here. * marks the point of attachment. TtdSuc = 4-[3-[2-[2-(3-aminopropoxy)ethoxy]ethoxy]propylamino]-4-oxobutanoyl; C20 diacid = O=C(O)CCCCCCCCCCCCCCCCCCC(=O)*; C19 diacid = O=C(O)CCCCCCCCCCCCCCCCCC(=O)*; γGlu = O=C(O)[C@H](CCC(=O)[*:2])N[*:1]; Desaminohistidyl = O=C(CCc1c[nH]cn1)*; εLys = N[C@@H](CCCCN[*:1])C(=O)[*:2]; Trx = NC[C@H]1CC[C@H](C(=O)O)CC1; PEG4 = NCCOCCOCCOCCOCCC(=O)O; AEEA = NCCOCCOCC(=O)O; Aib = CC(C)(N)C(=O)O; Inp = O=C(O)C1CCNCC1
Key:
human GLP-1 receptor [1] = biological target: T1, human GLP-1 receptor (human, UniProt P43220 24-463); experiment: competitive binding (SPA): displacement of 125I-GLP-1(7-36)NH2 from BHK cell membranes with human GLP-1 receptor; high HSA (2.0% final)
T1 construct: whole, on cells
Description: (§1) For the receptor binding assay in the presence of low HSA (0.005%) 50 μl of the assay buffer was added to each well of an assay plate. […] For the receptor binding assay in the presence of high HSA (2%) 50 μl of the 8% albumin stock was added to each well of an assay plate. […] Cell membrane aliquots were thawed and diluted to their working concentration. Fifty μl were added to each well in the assay plate. […] WGA SPA beads were suspended in assay buffer at 20 mg/ml. The suspension was diluted to 10 mg/ml in assay buffer just prior to addition to the assay plate. Fifty μl were added to each well in the assay plate. […] A 25 μl aliquot was reserved for measuring total counts/well. […] The assay plate was incubated for 2 h at 30° C. […] The assay plate was centrifuged for 10 min. […] The assay plate was read in a Packard TopCount NXT instrument.

human GLP-1 receptor [2] = biological target: T1, human GLP-1 receptor; experiment: competitive binding (SPA): displacement of 125I-GLP-1(7-36)NH2 from BHK cell membranes with human GLP-1 receptor; low HSA (max. 0.001% final)
Description: as §1

human GLP-1 receptor [3] = biological target: T1, human GLP-1 receptor; experiment: cell-based or functional assay

Binder	IC50 (human GLP-1 receptor [1])	IC50 (human GLP-1 receptor [2])	EC50 (pM), in vitro potency, CRE luciferase reporter gene assay in BHK cells expressing the human GLP-1 receptor (human GLP-1 receptor [3])
H[Aib]EGTFTSDVSSYLEEQAAREFIAWLVRGRGK([AEEA-AEEA-γGlu-Trx-C20 diacid])GGSK([AEEA-AEEA-γGlu-Trx-C20 diacid]) (Double-acylated, C-terminally extended GLP-1 analogue made by SPPS)	185 nM	1.2 nM	43 pM
H[Aib]EGTFTSDVSSYLEEK([AEEA-AEEA-γGlu-Trx-C20 diacid])AAREFIAWLVRGRGGGGSK([AEEA-AEEA-γGlu-Trx-C20 diacid]) (Double-acylated, C-terminally extended GLP-1 analogue made by SPPS)	113 nM	0.85 nM	74 pM
H[Aib]EGTFTSDVSSYLEEQAAREFIAK([AEEA-AEEA-γGlu-Trx-C20 diacid])LVRGRGGGGSK([AEEA-AEEA-γGlu-Trx-C20 diacid]) (Double-acylated, C-terminally extended GLP-1 analogue made by SPPS)	≥ 1000 nM	1.4 nM	36 pM
H[Aib]EGTFTSDVSK([AEEA-AEEA-γGlu-Trx-C20 diacid])YLEEQAAREFIAWLVRGRGGGGSK([AEEA-AEEA-γGlu-Trx-C20 diacid]) (Double-acylated, C-terminally extended GLP-1 analogue made by SPPS)	≥ 1000 nM	1 nM	93 pM
H[Aib]EGTFTSDVSSYLEEQAARK([AEEA-AEEA-γGlu-Trx-C20 diacid])FIAWLVRGRGGGGSK([AEEA-AEEA-γGlu-Trx-C20 diacid]) (Double-acylated, C-terminally extended GLP-1 analogue made by SPPS)	275 nM	0.75 nM	55 pM
H[Aib]EGTFTSDVSSYLEEQAAREFIAWLVRGK([AEEA-AEEA-γGlu-Trx-C20 diacid])GEGPAK([AEEA-AEEA-γGlu-Trx-C20 diacid]) (Double-acylated, C-terminally extended GLP-1 analogue made by SPPS; also called 16)	602 nM	1.4 nM	25 pM
H[Aib]EGTFTSDVSSYLEEQAARKFIAWLVRGRGGGGSK (not fully specified (residues 21, 36), Double-acylated, C-terminally extended GLP-1 analogue made by SPPS; The printed name has a typographic slip ('R2S)' for '[(2S)'))	383 nM	0.43 nM	260 pM
H[Aib]EGTFTSDVSSYLEEQAAREFIAWLVRGRGK([AEEA-AEEA-γGlu-Trx-C20 diacid])SAEK([AEEA-AEEA-γGlu-Trx-C20 diacid]) (Double-acylated, C-terminally extended GLP-1 analogue made by SPPS; also called 13)	160 nM	1.4 nM	24 pM
H[Aib]EGTFTSDVSSYLEEQAAREFIAWLVRGRGK([AEEA-AEEA-γGlu-Trx-C20 diacid])PEGK([AEEA-AEEA-γGlu-Trx-C20 diacid]) (Double-acylated, C-terminally extended GLP-1 analogue made by SPPS; also called 12)	212 nM	1.4 nM	24 pM
H[Aib]EGTFTSDVSSYLEEQAAREFIAWLVRGRGK([AEEA-AEEA-γGlu-Trx-C20 diacid])SPEK([AEEA-AEEA-γGlu-Trx-C20 diacid]) (Double-acylated, C-terminally extended GLP-1 analogue made by SPPS; also called 11)	116 nM	1.5 nM	27 pM
H[Aib]EGTFTSDVSSYLEEQAAREFIAWLVRGK([AEEA-AEEA-γGlu-Trx-C20 diacid])GGGGSK([AEEA-AEEA-γGlu-Trx-C20 diacid]) (Double-acylated, C-terminally extended GLP-1 analogue made by SPPS)	101 nM	1.1 nM	61 pM
[Desaminohistidyl][Aib]EGTFTSDVSSYLEEQAAREFIAWLVRGRGK([AEEA-AEEA-AEEA-AEEA-γGlu-Trx-C20 diacid])GGSK([AEEA-AEEA-AEEA-AEEA-γGlu-Trx-C20 diacid]) (Double-acylated, C-terminally extended GLP-1 analogue made by SPPS; also called 18)	219 nM	2.3 nM	13 pM
H[Aib]EGTFTSDVSSYLEEQAAREFIAWLVRGRGK([TtdSuc-γGlu-Inp-C20 diacid])GGSK([TtdSuc-γGlu-Inp-C20 diacid]) (Double-acylated, C-terminally extended GLP-1 analogue made by SPPS; also called 21)	177 nM	1.3 nM	19 pM
H[Aib]EGTFTSDVSSYLEEQAAREFIAWLVRGRGK([AEEA-AEEA-AEEA-AEEA-γGlu-Trx-C20 diacid])GGSK([AEEA-AEEA-AEEA-AEEA-γGlu-Trx-C20 diacid]) (Double-acylated, C-terminally extended GLP-1 analogue made by SPPS; also called 17)	99 nM	1.8 nM	12 pM
HXEGTFTSDVSSYLEEQAAREFIAWLVRGRGKGGSK (Aib at position 8; N-epsilon of Lys38 and of Lys42 each acylated with C20 diacid (19-carboxynonadecanoyl)-gGlu-TotaGlyc (GLP-1(7-37) numbering = sequence-listing position + 6), Double-acylated, C-terminally extended GLP-1 analogue made by SPPS; The printed name has 'AAib8' (typographic slip for Aib8); also called 22)	194 nM	0.82 nM	10 pM
HXEGTFTSDVSSYLEEQAAREFIAWLVRGRGKGGSK (Aib at position 8; N-epsilon of Lys38 and of Lys42 each acylated with C20 diacid (19-carboxynonadecanoyl)-Trx-gGlu-DooaSuc (GLP-1(7-37) numbering = sequence-listing position + 6), Double-acylated, C-terminally extended GLP-1 analogue made by SPPS; also called 23)	201 nM	1.4 nM	22 pM
H[Aib]EGTFTSDVSSYLEEQAAREFIAWLVRGRGK([AEEA-AEEA-AEEA-AEEA-εLys-εLys-C20 diacid])GGSK([AEEA-AEEA-AEEA-AEEA-εLys-εLys-C20 diacid]) (Double-acylated, C-terminally extended GLP-1 analogue made by SPPS; also called 25)	38 nM	0.22 nM	10 pM
H[Aib]EGTFTSDVSSYLEEQAAREFIAWLVRGRGK([AEEA-AEEA-AEEA-AEEA-γGlu-C20 diacid])GGSK([AEEA-AEEA-AEEA-AEEA-γGlu-C20 diacid]) (Double-acylated, C-terminally extended GLP-1 analogue made by SPPS; also called 19)	142 nM	2.4 nM	6.2 pM
[Desaminohistidyl][Aib]EGTFTSDVSSYLEEQAAREFIAWLVRGRGK([AEEA-AEEA-AEEA-AEEA-γGlu-C20 diacid])GGSK([AEEA-AEEA-AEEA-AEEA-γGlu-C20 diacid]) (Double-acylated, C-terminally extended GLP-1 analogue made by SPPS; also called 20)	270 nM	4.1 nM	8.4 pM
H[Aib]EGTFTSDVSSYLEEQAAREFIAWLVRGK([AEEA-AEEA-γGlu-Trx-C20 diacid])GAESPK([AEEA-AEEA-γGlu-Trx-C20 diacid]) (Double-acylated, C-terminally extended GLP-1 analogue made by SPPS; also called 14)	530 nM	1.5 nM	22 pM
H[Aib]EGTFTSDVSSYLEEQAAREFIAWLVRGK([AEEA-AEEA-γGlu-Trx-C20 diacid])GPASEK([AEEA-AEEA-γGlu-Trx-C20 diacid]) (Double-acylated, C-terminally extended GLP-1 analogue made by SPPS; also called 15)	928 nM	1.6 nM	20 pM
H[Aib]EGTFTSDVSSYLEEQAAREFIAWLVRGRGK([PEG4-γGlu-Trx-C20 diacid])GGSK([PEG4-γGlu-Trx-C20 diacid]) (Double-acylated, C-terminally extended GLP-1 analogue made by SPPS; also called 10)	123 nM	1.3 nM	27 pM
H[Aib]EGTFTSDVSSYLEEQAAREFIAWLVRGRGK([AEEA-AEEA-AEEA-AEEA-AEEA-AEEA-γGlu-Trx-C20 diacid])GGSK([AEEA-AEEA-AEEA-AEEA-AEEA-AEEA-γGlu-Trx-C20 diacid]) (Double-acylated, C-terminally extended GLP-1 analogue made by SPPS; also called 24)	84 nM	0.67 nM	7 pM
H[Aib]EGTFTSDVSSYLEEQAAREFIAWLVRGRGK([AEEA-AEEA-γGlu-Trx-C19 diacid])GGSK([AEEA-AEEA-γGlu-Trx-C19 diacid]) (Double-acylated, C-terminally extended GLP-1 analogue made by SPPS; also called 26)	202 nM	0.88 nM	13 pM

Reference: patent US20150011462A1 (Novo Nordisk, published 2015)
